Results: publication PMC4393884 (Structure (London, England : 1993), 2014)

T1: truncated PR-B (233-933) (human, UniProt P06401 233-933)
T1 sequence (looked up): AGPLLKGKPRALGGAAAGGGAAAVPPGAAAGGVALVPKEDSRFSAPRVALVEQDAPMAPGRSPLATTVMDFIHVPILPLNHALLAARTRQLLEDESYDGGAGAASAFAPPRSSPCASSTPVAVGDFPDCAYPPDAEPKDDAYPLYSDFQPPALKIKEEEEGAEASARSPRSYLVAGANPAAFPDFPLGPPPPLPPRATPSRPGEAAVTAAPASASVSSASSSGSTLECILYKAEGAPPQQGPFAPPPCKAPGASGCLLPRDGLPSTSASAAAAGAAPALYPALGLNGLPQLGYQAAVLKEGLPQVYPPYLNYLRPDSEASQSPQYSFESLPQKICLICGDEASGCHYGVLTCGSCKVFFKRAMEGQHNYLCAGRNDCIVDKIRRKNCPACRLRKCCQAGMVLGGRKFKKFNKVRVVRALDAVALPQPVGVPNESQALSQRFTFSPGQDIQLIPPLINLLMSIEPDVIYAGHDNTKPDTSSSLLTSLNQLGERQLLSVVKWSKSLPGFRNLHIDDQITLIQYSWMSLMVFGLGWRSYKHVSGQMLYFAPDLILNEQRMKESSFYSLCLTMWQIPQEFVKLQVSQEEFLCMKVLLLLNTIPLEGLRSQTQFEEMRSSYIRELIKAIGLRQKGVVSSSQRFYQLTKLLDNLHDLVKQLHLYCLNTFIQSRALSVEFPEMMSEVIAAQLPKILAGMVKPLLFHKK

B1: full length progesterone receptor isoform A (PR-A) (receptor, human, UniProt P06401-2 1-769, looked up)
chain: MSRSGCKVGDSSGTAAAHKVLPRGLSPARQLLLPASESPHWSGAPVKPSPQAAAVEVEEEDGSESEESAGPLLKGKPRALGGAAAGGGAAAVPPGAAAGGVALVPKEDSRFSAPRVALVEQDAPMAPGRSPLATTVMDFIHVPILPLNHALLAARTRQLLEDESYDGGAGAASAFAPPRSSPCASSTPVAVGDFPDCAYPPDAEPKDDAYPLYSDFQPPALKIKEEEEGAEASARSPRSYLVAGANPAAFPDFPLGPPPPLPPRATPSRPGEAAVTAAPASASVSSASSSGSTLECILYKAEGAPPQQGPFAPPPCKAPGASGCLLPRDGLPSTSASAAAAGAAPALYPALGLNGLPQLGYQAAVLKEGLPQVYPPYLNYLRPDSEASQSPQYSFESLPQKICLICGDEASGCHYGVLTCGSCKVFFKRAMEGQHNYLCAGRNDCIVDKIRRKNCPACRLRKCCQAGMVLGGRKFKKFNKVRVVRALDAVALPQPVGVPNESQALSQRFTFSPGQDIQLIPPLINLLMSIEPDVIYAGHDNTKPDTSSSLLTSLNQLGERQLLSVVKWSKSLPGFRNLHIDDQITLIQYSWMSLMVFGLGWRSYKHVSGQMLYFAPDLILNEQRMKESSFYSLCLTMWQIPQEFVKLQVSQEEFLCMKVLLLLNTIPLEGLRSQTQFEEMRSSYIRELIKAIGLRQKGVVSSSQRFYQLTKLLDNLHDLVKQLHLYCLNTFIQSRALSVEFPEMMSEVIAAQLPKILAGMVKPLLFHKK
B2: full length progesterone receptor isoform B (PR-B) (receptor, human, UniProt P06401 1-933, looked up)
chain: MTELKAKGPRAPHVAGGPPSPEVGSPLLCRPAAGPFPGSQTSDTLPEVSAIPISLDGLLFPRPCQGQDPSDEKTQDQQSLSDVEGAYSRAEATRGAGGSSSSPPEKDSGLLDSVLDTLLAPSGPGQSQPSPPACEVTSSWCLFGPELPEDPPAAPATQRVLSPLMSRSGCKVGDSSGTAAAHKVLPRGLSPARQLLLPASESPHWSGAPVKPSPQAAAVEVEEEDGSESEESAGPLLKGKPRALGGAAAGGGAAAVPPGAAAGGVALVPKEDSRFSAPRVALVEQDAPMAPGRSPLATTVMDFIHVPILPLNHALLAARTRQLLEDESYDGGAGAASAFAPPRSSPCASSTPVAVGDFPDCAYPPDAEPKDDAYPLYSDFQPPALKIKEEEEGAEASARSPRSYLVAGANPAAFPDFPLGPPPPLPPRATPSRPGEAAVTAAPASASVSSASSSGSTLECILYKAEGAPPQQGPFAPPPCKAPGASGCLLPRDGLPSTSASAAAAGAAPALYPALGLNGLPQLGYQAAVLKEGLPQVYPPYLNYLRPDSEASQSPQYSFESLPQKICLICGDEASGCHYGVLTCGSCKVFFKRAMEGQHNYLCAGRNDCIVDKIRRKNCPACRLRKCCQAGMVLGGRKFKKFNKVRVVRALDAVALPQPVGVPNESQALSQRFTFSPGQDIQLIPPLINLLMSIEPDVIYAGHDNTKPDTSSSLLTSLNQLGERQLLSVVKWSKSLPGFRNLHIDDQITLIQYSWMSLMVFGLGWRSYKHVSGQMLYFAPDLILNEQRMKESSFYSLCLTMWQIPQEFVKLQVSQEEFLCMKVLLLLNTIPLEGLRSQTQFEEMRSSYIRELIKAIGLRQKGVVSSSQRFYQLTKLLDNLHDLVKQLHLYCLNTFIQSRALSVEFPEMMSEVIAAQLPKILAGMVKPLLFHKK

Tests used:
[1] = biological target: T1, truncated PR-B (233-933); assay: HDX-MS
[2] = biological target: B1; assay: HDX-MS
[3] = biological target: B2; assay: HDX-MS
[4] = biological target: the molecule itself; assay: SEC

| binding result [1] | binding result [2] | binding result [3] | Binder | stoichiometry N [4] |
| --- | --- | --- | --- | --- |
| binds | binds | binds | C-terminal core DNA binding domain (aa 159-339) of human TATA-binding protein (TBPc) (domain or fragment, UniProt P20226 159-339, looked up) SGIVPQLQNIVSTVNLGCKLDLKTIALRARNAEYNPKRFAAVIMRIREPRTTALIFSSGKMVCTGAKSEEQSRLAARKYARVVQKLGFPAKFLDFKIQNMVGSCDVKFPIRLEGLVLTHQQFSSYEPELFPGLIYRMIKPRIVLLIFVSGKVVLTGAKVRAEIYEAFENIYPILKGFRKTT |  |
|  |  |  | B1 | 2 |
|  |  |  | B2 | 2 |
